This passage reports protease stability score results from the NTF2 design screens of Basanta et al. (2020).

This data set in a line: protease stability score; higher = more stable; yeast display proteolysis, trypsin and chymotrypsin.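 Note: relative to predicted unfolded state with 0 unfolded-like and 1 meaning tenfold more protease.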
Regarding “DEDENLMRQFWETWEEALKTGDEHILHNLMDPNYRFIIGDKEHHGREAAEEFIRRVDHVTDIKFHRYRRIGDKIQIDGHLDGEINGKRNRYRSDIFVLKIDGRWFIHSVQIK”, the protease stability score is 2.31. As to “DEDEQAFRHIMELKIHNINTGDEESLRRLMDPHVRIIIGDKQFHGMEFATEVFRRLGIKYIEDFKIDDLRIQGDKLDAHVTVRGNFNGVHTFHKMRLILRKYDGRWYIEHEEIK”, the protease stability score worked out at 2.14. The figure for “DEDEQELRDALERWIRAMYTGDEKTLRDLIDPNVLIDINGKIIHGRHKLSQHLREIRIHHFEMHIEDYRFQGDKVHMDVREKRHWVIGDKHIDESRSVTLIIVKFDGRWLMHRVIVH” is 1.19; for “DEDEQFWRNLAEEFMRALETGDEERMQELFDPHARLDIDGRRFHGWDTVIKFFEDLLKHLGITRIEFVYRRVRVINGVFHIEGEINVDGQTRDSRIENIVVDGKSQELRFNHR” it is 0.298.

“DEDEQHSELLFRLLYHARKTGDWRKLQELADPHTRFQIGEWDLIGWKMYLEYVRNFRNVHLEFHIKDFRLYGEKTHSNVETIIRIGDKTLNIETELRVDVVNGRIKFIEVHER” registered a protease stability score of 0.994. In turn, “DEDEQKHREAAHLMLEMILTGDFEYFRHLLDPDVRLEINGKEIHGREEVYRHLLEWWQRIKNVRIKFKTMRIHIFDGVLFIHLDLEIEIGDKSIKTEILIVSIKIDGRWLLNSLHIHDR” registered a protease stability score of 1.04. In the case of “DEDEQMKESLLKIYRQSMHTGDEESHERLADPNVRVDWDGVRYHGRHILAIILHELGADHMDLKIKDSRLVNGRIHMTVIEIIDIGDKKHKIETHLIADKFDGRWHLRTLEIR” it was 0.785.

Take “DEDERAIHVMLKLVKKAMDTGNEHMETELLDPNVRLDVNGRDVHGREEMRKFLNHHWKEWGVDRIIFLFESIHFQGDKVHIRGYVHINGKDFDVEFIASKVNGRWLVESRHLR”: the protease stability score came out at 1.03.

“DEDERAYEESVRTFLENNLTGNEEILHRLMDPHVKTDYGDKRYHGMEEATEMIRRLGVNHFHLNSVHHQGDKVHLHGRVIVNGREFQVHIESKKINGRWVIRKVVID” had a protease stability score of 1.27.

Regarding “DEDERDARKITDDYLHHLTTGDWNLMDTLADPHMKMDVNGQEIHGRESMVDLMLEWRFEHTDVHDKHVRSYDGKLEIHLDVHSRVHYNGRTDDTRREITLHIHKIDGRWRLEEVRIHYL”, the protease stability score worked out at 0.695. The figure for “DEDERDARKTSHLFLEAFTTGDEDLLRDMVDPNARSIVNGQEEHGWEVIHKTVRELQERYPNVKIDVNDWSYEVQGDKMRTILHFIIHFDGVHVEIHIHVFSRKINGRWVIRRIEYHER” is 2.07; for “DEDERDFRHYMELFQKAHETGDEDHFIKMMDPNARFLINGVHLHGWKEFVRLLEHIRMDVSDTRIRTVDSQGDKVRADTELIFRGKIDGREIDVTFETRIIIEKVDGRWHLREIRVH” it is 1.3; for “DEDERDTREAIELFRESIRTGDERILEEMVDPNVRLEFNGKHHHGMEHLVKWFSFLAKHWRVDIDLHHLEVQGDKVHSDERIDLVQGDKIVHTEVKIIFRKINGRWLMHKIRIN” it is 1.4. In the case of “DEDERDTRLALEELLRVSRTGNEHDHHRLVDPHVRMEINGRELHGWEVLVRLMHRYDHQELRVREVRVIGDKIDVDTENIVNFNGVEIVLETSIVARKIDGRWLIHSIHIG” it was 1.23; in that of “DEDEREAERSIREELEYTRTGDEDFIKRLADPHVKLNIDGQRHHGRETVVKIMVEARIKDLHIERLTVIDGRVHMRGRMEGNFNGRDTEVEVHIKLKKVNGQWHVRDFEIR”, 1.14.

The sequence “DEDERELQELREHFIRKFLTGDWEAIANLFDPNTRMNFNGREVHGMEEVMRVFWEIMEKLGVDHQTIHDVKWQGDKLEVHSYLDINGRRHKLRIELQVIDGVIRSVHFEIE” came in with a protease stability score of 1.21. With “DEDEREMERWFQEILEDLRTGDFRSISRMVDPHAKVDVNGQERHGREQVENLIRRFKNATIHITHVDLDVVNGKLVVRIDTRLHVDGQTRKTEIIVISNKVNGRWFMESLSFKIE”, the protease stability score was determined as 0.904. Sequence “DEDERERRWIYQLFLYLFITGDFHTLENLFDPHMRLHYGNKEYHGREEVSKTMLKIWRDLGVKYLSLRHFHIEIFNGRVSLHFYGEQDINGVHRDIEFRVDLVKINGKWVIEQIDLRIN” showed a protease stability score of 1.62. The sequence “DEDERESHNFMHEMEKAAKTGDWRKFEEMFDPDVRTIIGDKEDHGWEVAVKLFLDLGIKVLKVKRVDVVDGRLELEMELHFNGVIRKVTLRTKKVNGRWQVKELRFE” gave a protease stability score of 1.57.

Sequence “DEDERETRFIIKLLLETIQTGDEKTFEELLDPSVRLVVGDKIIHGRDVLSEFFSHARFHRIEIHNMESQGDKAHIDIRVDGKFNGKRKTTEVNLHIEKFDGRWRIKEFRIH” showed a protease stability score of 2.08. The figure for “DEDEREVAEVLRRWLHDFLTGDEKEFHRLVDPHVKYREHYNGQQIHVHGRENLFEFIRRRNEEMRMEILIRDWKVQGDYAESEGEVIFDINGRIHSVDLRVEIIVVNGRVSKVHISVN” is 0.847. In the case of “DEDEREVKHWLKILLHELWTGDFRNVSRLMDPHARLLINGVTVVGREEFLEVLRRVDHIELRIRDMKVIDGRIHAETELIEHFDGRTFIHDTHMRAKKVDGRWRIESIEIR” it was 1.31; in that of “DEDERFAEIAIRLMIEIIKTGDEREEDKLIDPHARLIVGDWLIHGRDELVRYLTHLRIEHLEIKTWEVVNGRVKLTTRIHLRINGRHHETDQVNIIEKVNGRWYMKLIEFK”, 1.19. The figure for “DEDERFFHEMLELWMHIYETGDWNRLHELFDPNALLLIGDKQVHGREKVTHYLFEMVHRADHSESRVRELHVIDGRVHIHLELHIDQGDKHLRIEIFLHAKKVNGRWVFTKLELR” is 1.99. As for “DEDERFTKFAWELLVKALVTGDEDSLKDLFDPHARIFYNGRINHGRESFVKHLMEIRFKRIEMRRFDFFDGRVRMEGEVEGEVDGKEDHYRIEIVVKKYDGRWELKEFRLV”, the protease stability score was determined as 1.68.

Sequence “DEDERHARKVLELWLQSLLTGDEELTDHLLDPRVKILVDGVELHGREHARMFHRHIHMRIDHMKDFHIHSFTSVGDKVHVDIRIHFRQGDKEYRLNQRTLILKVNGRWVIEKIEVD” showed a protease stability score of 2.22. In the case of “DEDERHFEIWFKLFIHLYLTGNEETLRHLADPNVRTVYNGRDFHGWDEMVRIHHEMFDFYKGLRVEKVNVESVEIFDGRVLILLRIRVLVNGRTTDDHIHVEAKKIDGQWIIESVDFR” it was 1.65; in that of “DEDERHMEKMWRDWVHARYTGDEHRLDELFDPDARMLIDGVDAVGREEVHRLLHKMLKRLGIKHIEHVRITHIEIQGDKIHIENEIRGIVGDKTTTVEVHLVIIKVDGQWRIRSVEEK”, 1.14. In the case of “DEDERHMRQTLEDYDHAVETGDWKRLRELADPDYKTDIDGVEIHGMELFWEHLRREVEKYKNVKVEFRLKRIRSIGDFMEIDGRLTLKYGDKEIRVRVIIHAIKVDGRWLFHRMIFG” it was 1.69; in that of “DEDERHTKILIDLLLHNSHTGDEHVLRHLFDPNVKIVIGDKELIGREYADQFIKRVDVIDHIEIKDWHTIGDKVHFHGETEGVIDGRKVHTHVKLEMKKFDGRWLIHRIVIR”, 1.95. The figure for “DEDERISRNFVRLILHAIRTGNENMIKTMADPNDRLEVGDKEFHGRELALEFWFRFDVLKEFHIRSVHSQGDKLHIEGESTWVIGDKEIRTTEHRLIIKIDGQWVLTEIKME” is 1.62; for “DEDERLAEEAVKLLIEINRTGDEDLFERNIDPNAQSDINGRRLHGMEQISEFLLRIKNIKLQPRHVDVQGDKMRVEGHLHINGQTHEVRWFVTKINGVWLITEIRVH” it is 1.12; for “DEDERLAEEFFEKFTRDIYTGDWRALRELLDPNVRLHINGRNHHGREELLYFEIEIYRRADHVEHRLREVTLFDGRVHVDVEIILHQGDKLIVLHVILFMEKVDGRWILRRKEVR” it is 1.5.

With “DEDERLAKHFIELFIESFLTGDFDEVRKLIDPHTRVEIIIGDKVIEDHGWEAYSRTFNHLGIDHIHREDFRVTLVNGRAVLRLQFRIEIGDKEFDMHIHVFSNKINGRWHVERILIYVR”, the protease stability score turned out to be 2.34.
